Sequences and labels used below:
B1: GLI1_(1-232), wild type, 35S-radiolabeled [modified: [35S]-methionine label; [35S]-methionine label] [human] / GST-SUFU (fusion of GST to full-length human SUFU) [human] (parent)
chain 1: MFNSMTPPPISSYGEPCCLRPLPSQGAPSVGTEGLSGPPFCHQANLMSGPHSYGPARETNSCTEGPLFSSPRSAVKLTKKRALSISPLSDASLDLQTVIRTSPSSLVAFINSRCTSPGGSYGHLSIGTMSPSLGFPAQMNHQKGPSPSFGVQPCGPHDSARGGMIPHPQSRGPFPTCQLKSELDMLVGKCREEPLEGDMSSPNSTGIQDPLLGMLDGREDLEREEKREPESV
chain 2: MAELRPSGAPGPTAPPAPGPTAPPAFASLFPPGLHAIYGECRRLYPDQPNPLQVTAIVKYWLGGPDPLDYVSMYRNVGSPSANIPEHWHYISFGLSDLYGDNRVHEFTGTDGPSGFGFELTFRLKRETGESAPPTWPAELMQGLARYVFQSENTFCSGDHVSWHSPLDNSESRIQHMLLTEDPQMQPVQTPFGVVTFLQIVGVCTEELHSAQQWNGQGILELLRTVPIAGGPWLITDMRRGETIFEIDPHLQERVDKGIETDGSNLSGVSAKCAWDDLSRPPEDDEDSRSICIGTQPRRLSGKDTEQIRETLRRGLEINSKPVLPPINPQRQNGLAHDRAPSRKDSLESDSSTAIIPHELIRTRQLESVHLKFNQESGALIPLCLRGRLLHGRHFTYKSITGDMAITFVSTGVEGAFATEEHPYAAHGPWLQILLTEEFVEKMLEDLEDLTSPEEFKLPKEYSWPEKKLKVSILPDVVFDSPLH

Variants of B1 are the subject of one assay. Put plainly: GST-SUFU pull-down binding assay with 35S-radiolabeled in vitro-translated GLI1. The settings on record: 10 nM GST-SUFU, parent: 55, read off a plot.
With chain 1 S130E, the response was found to be 33 % GLI1 Bound.

The assay is the same for the next values; noted with them: 20 nM GST-SUFU, parent: 67, read off a plot.
Turning to chain 1 S130E, the response amounted to 52 % GLI1 Bound.

The assay is the same for the next values; noted with them: 40 nM GST-SUFU, parent: 80, read off a plot.
For the variant chain 1 S130E, the response turned out to be 61 % GLI1 Bound.

Staying with this assay, now noted: 80 nM GST-SUFU, parent: 95, read off a plot.
With chain 1 S130E, the response was 72 % GLI1 Bound.

The values are drawn from PMC9279676, “ERK2 MAP kinase regulates SUFU binding by multisite phosphorylation of GLI1” (Life Science Alliance, 2022).
